Experimental data reported in PMC2213500 (The Journal of Experimental Medicine, 2000).

How the values were obtained:
[1] = target: Cys-HA_(Anchorless) peptide, unlabelled (influenza virus); assay: SPR
[2] = target: fluorescein-labelled HA_(Anchorless) peptide (influenza virus); assay: dissociation kinetics of fluorescent peptide-MHC complexes
[3] = target: influenza virus hemagglutinin peptide HA_(305–318), unlabelled (influenza virus); assay: SPR

Row | Substance | dissociation rate in the presence of DM [1] | rate of binding to the peptide surface in the absence of DM [1] | t1/2 in the presence of DM [1] | t1/2 of dissociation [1] | t1/2 of dissociation [2] | dissociation rate in the presence of DM [3] | t1/2 in the presence of DM [3]
1 | soluble mutant HLA-DR1 with β86 glycine changed to tyrosine (from UniProt P01903) (complex) | 8.5e-05 s⁻¹ | 0.119 s⁻¹ | 2.25 h | 3.4 h | 1.8 h | – | –
2 | soluble wild-type HLA-DR1 (empty, no added peptide) (from UniProt P01903) (complex) | 0.0038 s⁻¹ | 0.035 s⁻¹ | 0.05 h | – | 1.8 h | 5.6e-07 s⁻¹ | 344 h
